Laboratory results: patent US20230158141A1 (YAFEI SHANGHAI BIOLOG MEDICINE SCIENCE AND TECHNOLOGY, published 2023)

T1: IL-10R1-Fc (UniProt Q13651 22-235, limits assumed)
T1 sequence (looked up): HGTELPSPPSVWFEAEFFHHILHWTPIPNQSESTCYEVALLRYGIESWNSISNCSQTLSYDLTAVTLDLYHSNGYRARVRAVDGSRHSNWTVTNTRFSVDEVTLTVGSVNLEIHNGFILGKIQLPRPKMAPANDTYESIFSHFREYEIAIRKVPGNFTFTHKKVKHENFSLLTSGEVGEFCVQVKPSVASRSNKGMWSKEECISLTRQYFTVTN


Molecular target: T1, IL-10R1-Fc
Assay: ELISA, IL-10R1-Fc coated

| Binder | Binding recovery (>60%) [%] | Decreased fold of binding to ligand after Conjugating with S48 [fold] |
| --- | --- | --- |
| IL-10 Met140Cys-R4-1 (ligand, human, UniProt P22301 19-178, looked up, R4-1 on Cys 140, mature) SPGQGTQSENSCTHFPGNLPNMLRDLRDAFSRVKTFFQMKDQLDNLLLKESLLEDFKGYLGCQALSEMIQFYLEEVMPQAENQDPDIKAHVNSLGENLKTLRLRLRRCHRFLPCENKSKAVEQVKNAFNKLQEKGIYKACSEFDIFINYIEAYMTMKIRN | 89 | – |
| IL-10 Phe111Cys-R4-8 (ligand, human, UniProt P22301 19-178, looked up, R4-8 on Cys 111, mature) SPGQGTQSENSCTHFPGNLPNMLRDLRDAFSRVKTFFQMKDQLDNLLLKESLLEDFKGYLGCQALSEMIQFYLEEVMPQAENQDPDIKAHVNSLGENLKTLRLRLRRCHRCLPCENKSKAVEQVKNAFNKLQEKGIYKAMSEFDIFINYIEAYMTMKIRN | 90.1 | – |
| IL-10 Phe143Cys-S48 (ligand, human, UniProt P22301 19-178, looked up, S48 on Cys 143, mature) SPGQGTQSENSCTHFPGNLPNMLRDLRDAFSRVKTFFQMKDQLDNLLLKESLLEDFKGYLGCQALSEMIQFYLEEVMPQAENQDPDIKAHVNSLGENLKTLRLRLRRCHRFLPCENKSKAVEQVKNAFNKLQEKGIYKAMSECDIFINYIEAYMTMKIRN | – | 7 |
| IL-10 Phe111Cys-S48 (ligand, human, UniProt P22301 19-178, looked up, S48 on Cys 111, mature) SPGQGTQSENSCTHFPGNLPNMLRDLRDAFSRVKTFFQMKDQLDNLLLKESLLEDFKGYLGCQALSEMIQFYLEEVMPQAENQDPDIKAHVNSLGENLKTLRLRLRRCHRCLPCENKSKAVEQVKNAFNKLQEKGIYKAMSEFDIFINYIEAYMTMKIRN | – | 12 |
| IL-10 Phe143Cys-R4-8 (ligand, human, UniProt P22301 19-178, looked up, R4-8 on Cys 143, mature) SPGQGTQSENSCTHFPGNLPNMLRDLRDAFSRVKTFFQMKDQLDNLLLKESLLEDFKGYLGCQALSEMIQFYLEEVMPQAENQDPDIKAHVNSLGENLKTLRLRLRRCHRFLPCENKSKAVEQVKNAFNKLQEKGIYKAMSECDIFINYIEAYMTMKIRN | 69 | – |
| IL-10 Phe30Cys-R4-8 (ligand, human, UniProt P22301 19-178, looked up, R4-8 on Cys 30, mature) SPGQGTQSENSCTHFPGNLPNMLRDLRDACSRVKTFFQMKDQLDNLLLKESLLEDFKGYLGCQALSEMIQFYLEEVMPQAENQDPDIKAHVNSLGENLKTLRLRLRRCHRFLPCENKSKAVEQVKNAFNKLQEKGIYKAMSEFDIFINYIEAYMTMKIRN | 97.1 | – |
| IL-10 Phe30Cys-S48 (ligand, human, UniProt P22301 19-178, looked up, S48 on Cys 30, mature) SPGQGTQSENSCTHFPGNLPNMLRDLRDACSRVKTFFQMKDQLDNLLLKESLLEDFKGYLGCQALSEMIQFYLEEVMPQAENQDPDIKAHVNSLGENLKTLRLRLRRCHRFLPCENKSKAVEQVKNAFNKLQEKGIYKAMSEFDIFINYIEAYMTMKIRN | – | 6 |
| IL-10 Met140Cys-S48 (ligand, human, UniProt P22301 19-178, looked up, S48 on Cys 140, mature) SPGQGTQSENSCTHFPGNLPNMLRDLRDAFSRVKTFFQMKDQLDNLLLKESLLEDFKGYLGCQALSEMIQFYLEEVMPQAENQDPDIKAHVNSLGENLKTLRLRLRRCHRFLPCENKSKAVEQVKNAFNKLQEKGIYKACSEFDIFINYIEAYMTMKIRN | – | 3 |

Second part, the binder after the results:

| Binding recovery (>60%) [%] | Decreased fold of binding to ligand after Conjugating with S48 [fold] | Binder |
| --- | --- | --- |
| 100 | – | IL-10 Ser8Cys-R4-5 (ligand, human, UniProt P22301 19-178, looked up, R4-5 on Cys 8, mature) SPGQGTQCENSCTHFPGNLPNMLRDLRDAFSRVKTFFQMKDQLDNLLLKESLLEDFKGYLGCQALSEMIQFYLEEVMPQAENQDPDIKAHVNSLGENLKTLRLRLRRCHRFLPCENKSKAVEQVKNAFNKLQEKGIYKAMSEFDIFINYIEAYMTMKIRN |
| – | 3 | IL-10 Ser8Cys-S48 (ligand, human, UniProt P22301 19-178, looked up, S48 on Cys 8, mature) SPGQGTQCENSCTHFPGNLPNMLRDLRDAFSRVKTFFQMKDQLDNLLLKESLLEDFKGYLGCQALSEMIQFYLEEVMPQAENQDPDIKAHVNSLGENLKTLRLRLRRCHRFLPCENKSKAVEQVKNAFNKLQEKGIYKAMSEFDIFINYIEAYMTMKIRN |
| – | 9 | IL-10 Ser11Cys-S48 (ligand, human, UniProt P22301 19-178, looked up, S48 on Cys 11, mature) SPGQGTQSENCCTHFPGNLPNMLRDLRDAFSRVKTFFQMKDQLDNLLLKESLLEDFKGYLGCQALSEMIQFYLEEVMPQAENQDPDIKAHVNSLGENLKTLRLRLRRCHRFLPCENKSKAVEQVKNAFNKLQEKGIYKAMSEFDIFINYIEAYMTMKIRN |
| 96.7 | – | IL-10 Ser51Cys-R4-7 (ligand, human, UniProt P22301 19-178, looked up, R4-7 on Cys 51, mature) SPGQGTQSENSCTHFPGNLPNMLRDLRDAFSRVKTFFQMKDQLDNLLLKECLLEDFKGYLGCQALSEMIQFYLEEVMPQAENQDPDIKAHVNSLGENLKTLRLRLRRCHRFLPCENKSKAVEQVKNAFNKLQEKGIYKAMSEFDIFINYIEAYMTMKIRN |
| 100 | – | IL-10 Ser118Cys-R4-5 (ligand, human, UniProt P22301 19-178, looked up, R4-5 on Cys 118, mature) SPGQGTQSENSCTHFPGNLPNMLRDLRDAFSRVKTFFQMKDQLDNLLLKESLLEDFKGYLGCQALSEMIQFYLEEVMPQAENQDPDIKAHVNSLGENLKTLRLRLRRCHRFLPCENKCKAVEQVKNAFNKLQEKGIYKAMSEFDIFINYIEAYMTMKIRN |
| – | 3 | IL-10 Ser118Cys-S48 (ligand, human, UniProt P22301 19-178, looked up, S48 on Cys 118, mature) SPGQGTQSENSCTHFPGNLPNMLRDLRDAFSRVKTFFQMKDQLDNLLLKESLLEDFKGYLGCQALSEMIQFYLEEVMPQAENQDPDIKAHVNSLGENLKTLRLRLRRCHRFLPCENKCKAVEQVKNAFNKLQEKGIYKAMSEFDIFINYIEAYMTMKIRN |
| 133 | – | IL-10 Ser11Cys-R4-7 (ligand, human, UniProt P22301 19-178, looked up, R4-7 on Cys 11, mature) SPGQGTQSENCCTHFPGNLPNMLRDLRDAFSRVKTFFQMKDQLDNLLLKESLLEDFKGYLGCQALSEMIQFYLEEVMPQAENQDPDIKAHVNSLGENLKTLRLRLRRCHRFLPCENKSKAVEQVKNAFNKLQEKGIYKAMSEFDIFINYIEAYMTMKIRN |
| – | 3 | IL-10 Ser51Cys-S48 (ligand, human, UniProt P22301 19-178, looked up, S48 on Cys 51, mature) SPGQGTQSENSCTHFPGNLPNMLRDLRDAFSRVKTFFQMKDQLDNLLLKECLLEDFKGYLGCQALSEMIQFYLEEVMPQAENQDPDIKAHVNSLGENLKTLRLRLRRCHRFLPCENKSKAVEQVKNAFNKLQEKGIYKAMSEFDIFINYIEAYMTMKIRN |
| 100 | – | IL-10 Ser93Cys-R4-2 (ligand, human, UniProt P22301 19-178, looked up, R4-2 on Cys 93, mature; the row prints S in one column and Asp in the next) SPGQGTQSENSCTHFPGNLPNMLRDLRDAFSRVKTFFQMKDQLDNLLLKESLLEDFKGYLGCQALSEMIQFYLEEVMPQAENQDPDIKAHVNCLGENLKTLRLRLRRCHRFLPCENKSKAVEQVKNAFNKLQEKGIYKAMSEFDIFINYIEAYMTMKIRN |
| 112 | – | IL-10 Ser141Cys-R4-7 (ligand, human, UniProt P22301 19-178, looked up, R4-7 on Cys 141, mature) SPGQGTQSENSCTHFPGNLPNMLRDLRDAFSRVKTFFQMKDQLDNLLLKESLLEDFKGYLGCQALSEMIQFYLEEVMPQAENQDPDIKAHVNSLGENLKTLRLRLRRCHRFLPCENKSKAVEQVKNAFNKLQEKGIYKAMCEFDIFINYIEAYMTMKIRN |
| – | 19 | IL-10 Ser141Cys-S48 (ligand, human, UniProt P22301 19-178, looked up, S48 on Cys 141, mature) SPGQGTQSENSCTHFPGNLPNMLRDLRDAFSRVKTFFQMKDQLDNLLLKESLLEDFKGYLGCQALSEMIQFYLEEVMPQAENQDPDIKAHVNSLGENLKTLRLRLRRCHRFLPCENKSKAVEQVKNAFNKLQEKGIYKAMCEFDIFINYIEAYMTMKIRN |
| – | 3 | IL-10 Ser93Cys-S48 (ligand, human, UniProt P22301 19-178, looked up, S48 on Cys 93, mature; the row prints S in one column and Asp in the next) SPGQGTQSENSCTHFPGNLPNMLRDLRDAFSRVKTFFQMKDQLDNLLLKESLLEDFKGYLGCQALSEMIQFYLEEVMPQAENQDPDIKAHVNCLGENLKTLRLRLRRCHRFLPCENKSKAVEQVKNAFNKLQEKGIYKAMSEFDIFINYIEAYMTMKIRN |
